This test has as its target IVIg (Octagam). Put plainly: cell-based or functional assay.

Changes are numbered by the printed parent chain.

B1: pCART202 (enzyme)
chain: MDDYQRNATEAYAKEVPHQITSVWTKGVTPLTPEQFTQGEDVIHAPYLAHQGWYDITKAFDGKDNLLCGAATAGNMLHWWFDQNKTEIEAYLSKHPEKQKIIFNNQELFDLKAAIDTKDSQTNSQLFNYFRDKAFPNLSARQLGVMPDLVLDMFINGYYLNVFKTQSTDVNRPYQDKDKRGGIFDAVFTRGDQTTLLTARHDLKNKGLNDISTIIKQELTEGRALALSHTYANVSISHVINLWGADFNAEGNLEAIYVTDSDANASIGMKKYFVGINAHGHVAISAKKIEGENIGAQVLGLFTLSSGKDIWQKLSGGGHHHHHH
B1 displayed an enzyme concentration giving an intense scIgG band on SDS-PAGE of 0.94 ng/mL.

B2: pCART229 (enzyme)
chain: MDDYQRNATEAYAKEVPHQITSVWTKGVTPPEQFTQGEDVIHAPYLAHQGWYDITKAFDGKDNLLCGAATAGNMLHWWFDQNKTEIEAYLSKHPEKQKIIFRNQELFDLKAAIDTKDSQTNSQLFNYFRDKAFPNLSARQLGVMPDLVLDMFINGYYLNVFKTQSTDVNRPYQDKDKRGGIFDAVFTRGNQTTLLTARHDLKNKGLNDISTIIKQELTEGRALALSHTYANVSISHVINLWGADFNAEGNLEAIYVTDSDANASIGMKKYFVGINAHGHVAISAKKIEGENIGAQVLGLFTLSSGKDIWQKLSGGGHHHHHH
In the case of B2, the Conc. of enzyme, 1st IgG heavy chain, IgG to scIgG (gel) came to 1900 ng/mL and the Conc. of enzyme, 2nd IgG heavy chain, scIgG to F(ab')2 (gel) is 7500 ng/mL.

B3: pCART203 (enzyme)
chain: B2 chain with R102N, N190D
In turn, B3 had an enzyme concentration giving an intense scIgG band on SDS-PAGE of 0.94 ng/mL and an enzyme concentration giving mainly scIgG on SDS-PAGE of 0.9 ng/mL.

B4: pCART210 (enzyme)
chain: B2 chain with H48N, A111E, D114R, N126E, N135Y, N169K, Q215E, E219K, A276K, S313N
B4 showed an enzyme concentration giving mainly scIgG on SDS-PAGE of 0.9 ng/mL.

B5: pCART208 (enzyme)
chain: B2 chain with F101I, N190D
On to B5, for which the enzyme concentration giving a dominating F(ab')2 band on SDS-PAGE is 1.9 ng/mL and the enzyme concentration giving mainly scIgG on SDS-PAGE turned out to be 0.5 ng/mL.

B6: pCART204 (enzyme)
chain: MDDYQRNATEAYAKEVPHQITSVWTKGVTPPEQFRYNNEDVIHAPYLAHQGWYDITKAFDGKDNLLCGAATAGNMLHWWFDQNKTEIEAYLSKHPEKQKIIFNNQELFDLKAAIDTKDSQTNSQLFNYFRDKAFPNLSARQLGVMPDLVLDMFINGYYLNVFKTQSTDVNRPYQDKDKRGGIFDAVFTRGDQTTLLTARHDLKNKGLNDISTIIKQELTEGRALALSHTYANVSISHVINLWGADFNAEGNLEAIYVTDSDANASIGMKKYFVGINAHGHVAISAKKIEGENIGAQVLGLFTLSSGKDIWQKLSGGGHHHHHH
In turn, B6 returned an enzyme concentration giving an intense scIgG band on SDS-PAGE of 0.94 ng/mL.
